Common to all, as to assay type: physicochemical
A short description of series [1]: Extrusion state from the tip of a 23 G injection needle (characteristics). The arrangement: key: ◯: formed a mass or a lump having a shape-maintaining property at the tip of the injection needle; X: did not form a mass. The conditions noted are these: slowly extruded from an injection needle with 23 G downward. Here is the method: (§1) Evaluation was carried out in accordance with the following criteria.

Series [2] can be described thus: Viscosity measured with a rotation viscometer. The following applies: gel from 1% solution in phosphate buffered physiological saline, photoirradiated, heat treatment; rotation viscometer at 20° C., standard cone (1°34′, 1 rpm). The protocol: A 1% phosphate buffered physiological saline solution of the obtained naproxen-introduced photo-reactive HA (photo-reactive group: cinnamic acid) was prepared, and filled in a 5 mL glass syringe.
as §1

The nature of series [3]: Extrusion feeling through a 23 gauge injection needle. The following applies: whole gel (2 ml to 5 ml) in 5 ml syringe, 23 gauge needle, limit pressure 0.5 to 5 kg/cm^2. The arrangement: key: ◯: easily extruded; X: difficulty extruded. The protocol: Evaluation was carried out in accordance with the following criteria. ◯: easily extruded X: difficulty extruded Incidentally, with regard to the criteria for the extrusion feeling, within the range of a limit pressure (0.5 to 5 kg/cm^2), when a whole gel (2 ml to 5 ml) filled in a syringe having a volume of 5 ml was extruded through an injection needle of 23 gauge, it was evaluated to as easily extruded (◯). Also, according to the same operation, when not a whole gel filled in a syringe was extruded, for example, by clogging due to insoluble materials, it was evaluated to as difficulty extruded (X).

As for “actarit-introduced photo-crosslinked HA gel [Example 8]”, the Extruded state entry in series [1] is reported as “◯”. The substance further yielded a viscosity in series [2] of 10.8 Pa·s. For the same substance, the Extrusion feeling entry in series [3] is reported as “◯”.
For “etodolac-introduced photo-crosslinked HA gel [Example 7]”, in series [1], the Extruded state entry was “◯”. Moreover, in series [2], the viscosity is given as 12.7 Pa·s. Besides, in series [3], the Extrusion feeling entry was “◯”.
As for “felbinac-introduced photo-crosslinked sodium hyaluronate gel [Example 5]”, the Extruded state result in series [1] is “X”. In series [2], this substance registered a viscosity of 7.32 Pa·s. Besides, in series [3], the Extrusion feeling entry was “◯”.
The like results for “flurbiprofen-introduced photo-crosslinked HA gel [Example 4]” were, in that order, “◯”, 21.2 Pa·s and “◯”.
For the substance “ibuprofen-introduced photo-crosslinked HA gel [Example 3]”, the Extruded state entry in series [1] is listed as “◯”. The substance further had a viscosity in series [2] of 13.1 Pa·s. The Extrusion feeling entry in series [3] is listed as “◯”.

(Values after patent publication US8354392B2, “Drug-introduced photo-crosslinked hyaluronic acid derived gel” (priority 2005, dated 2013).)
